Data published in patent publication US20230235074A1 (University of Texas, published 2023).

What was measured:
[1] = target: BST2 as expressed endogenously on the surface of human cell lines (B-LCL, MM1, U266, MCF-10A, MCF7, MDA-MB-231, T47D) (human) (UniProt Q10589); test: flow cytometry on MCF-10A cells, mAb 1 ug/ml
[2] = target: T1, Spartan protein (SprT-like domain-containing protein) (human, UniProt Q9H040 1-489, limits assumed); test: flow cytometry of MM1 cells after preincubation of the mAb with Spartan protein
T1 construct: Irrelevant protein control in the preincubation assay; also called Spartan irrelevant protein; irrelevant protein
T1 sequence (looked up): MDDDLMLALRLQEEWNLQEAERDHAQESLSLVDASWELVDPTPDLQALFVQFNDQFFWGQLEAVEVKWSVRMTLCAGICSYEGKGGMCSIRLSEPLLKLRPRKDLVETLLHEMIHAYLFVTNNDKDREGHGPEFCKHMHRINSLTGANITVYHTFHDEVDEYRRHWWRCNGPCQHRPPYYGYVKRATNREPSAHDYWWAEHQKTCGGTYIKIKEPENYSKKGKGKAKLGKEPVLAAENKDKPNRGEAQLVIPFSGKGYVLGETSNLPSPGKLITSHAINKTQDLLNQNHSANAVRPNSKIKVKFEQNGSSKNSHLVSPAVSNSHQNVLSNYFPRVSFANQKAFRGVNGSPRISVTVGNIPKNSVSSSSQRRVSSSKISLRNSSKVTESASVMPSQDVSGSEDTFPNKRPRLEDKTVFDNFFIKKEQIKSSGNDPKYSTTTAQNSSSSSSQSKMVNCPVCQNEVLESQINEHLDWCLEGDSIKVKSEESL
Protocol: A specificity assay was performed and analyzed through flow cytometry staining of MM1, a multiple myeloma cell line. In this assay, changes in the binding of the LA5 mAb to the BST2 receptor expressed on MM1 cell lines were assessed after:
As part of the characterization of the selected antibody candidate, the inventors analyzed the specificity of the new antibody by flow cytometry staining of a cell line, constitutively expressing BST2, competing the antibody binding to the cells with a recombinant BST2 protein and an irrelevant target. Staining of MM1, a multiple myeloma cell line, was assessed at different conditions to test the binding specificity of the generated monoclonal antibodies. Anti-BST2-long (clone LA5) was pre-incubated with BST2 protein for 10 minutes, before being transferred to U-bottom wells plate containing MM1 cells. […] Alternatively, Spartan protein, or SprT-like domain-containing protein, a human DNA-binding metalloprotease with 489 amino acid length and involved in the response to DNA replication errors (34, 35) was used as an irrelevant protein.

[3] = target: T2, BST2 long isoform (BST2-D, full length BST2, 180 amino acids) expressed on HEK293 transfectants (human, UniProt Q10589 1-161); test: flow cytometry, hybridoma supernatant on HEK293-long cells
T2 construct: also called HEK293-long; HEK293 WT-BST2
Protocol: For flow cytometry assays, cells were detached using 0.05% trypsin-EDTA, counted, washed and resuspend with FACS Buffer (PBS, 2% FBS, 2 mM EDTA). 2×10⁵ cells in 100 ul/well were placed in U-bottom 96-well plate and centrifuged (1000 RPM/3 min/4° C.). The buffer was discarded and 100 ul of the previously collected supernatants with selected monoclonal antibodies were added to the wells and incubated on ice for 30 minutes. After incubation, the plate was washed three times with FACS buffer and 50 ul of diluted (1/250) secondary antibody (Donkey anti-mouse Allophycocyanin (APC) conjugated) were added to the wells and incubated on ice for 20 minutes protected from light. The final wash was repeated 4 times, and the samples were transferred and analyzed at the South Campus Flow Cytometry & Cell Sorting Core Laboratory at MD Anderson Cancer Center. FACS data were analyzed with FlowJo™ Software—for Windows (Version 10.6.1. Ashland, Oreg.: Becton, Dickinson and Company; 2020).

[4] = target: T3, Recombinant human BST2 protein (Catalog number 13370-H07H, Sino Biological) (human, UniProt Q10589 49-161); test: BLI (Octet RED384), mAb 5 ug/ml captured on anti-mouse IgG Fc (AMC) biosensors, BST2 protein 15.625-1000 nM, 1:1 model, global fit
T3 construct: Bought soluble protein; also called full length recombinant BST2 protein; full-length BST2 protein
T3 sequence (looked up): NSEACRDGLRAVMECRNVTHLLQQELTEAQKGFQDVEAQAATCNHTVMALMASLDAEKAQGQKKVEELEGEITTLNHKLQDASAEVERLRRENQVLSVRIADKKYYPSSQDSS
Protocol: Binding kinetics of the anti-BST2-long mAb clone LA5 was assessed, using Octet RED384 platform system. Briefly, antibodies were captured, as described under methods, by specific biosensors that bind the Fc region of the antibody. Based on prior experiments and certain standard operations procedures, 5 ug/ml was selected as the fixed concentration for the mAb. Various concentrations of the full length recombinant BST2 protein were used to assess the antibody affinity. The interaction was analyzed with a 1:1 binding model, involving both the association and the dissociation steps.

[5] = target: BST2 as expressed endogenously on the surface of human cell lines (B-LCL, MM1, U266, MCF-10A, MCF7, MDA-MB-231, T47D) (human) (UniProt Q10589); test: flow cytometry on MM1 cells, mAb preincubated 10 min with recombinant BST2 protein (5 ug/ml) as competitor
[6] = target: BST2 as expressed endogenously on the surface of human cell lines (B-LCL, MM1, U266, MCF-10A, MCF7, MDA-MB-231, T47D) (human) (UniProt Q10589); test: flow cytometry on MM1 cells, mAb 1 ug/ml
[7] = target: BST2 as expressed endogenously on the surface of human cell lines (B-LCL, MM1, U266, MCF-10A, MCF7, MDA-MB-231, T47D) (human) (UniProt Q10589); test: flow cytometry on MM1 cells, mAb preincubated 10 min with Spartan protein (5 ug/ml)
[8] = target: BST2 as expressed endogenously on the surface of human cell lines (B-LCL, MM1, U266, MCF-10A, MCF7, MDA-MB-231, T47D) (human) (UniProt Q10589); test: flow cytometry on T47D cells, mAb 1 ug/ml
[9] = target: BST2 as expressed endogenously on the surface of human cell lines (B-LCL, MM1, U266, MCF-10A, MCF7, MDA-MB-231, T47D) (human) (UniProt Q10589); test: flow cytometry on MDA-MB-231 cells, mAb 1 ug/ml
[10] = target: BST2 as expressed endogenously on the surface of human cell lines (B-LCL, MM1, U266, MCF-10A, MCF7, MDA-MB-231, T47D) (human) (UniProt Q10589); test: flow cytometry on MM1 cells, mAb not preincubated
[11] = target: BST2 as expressed endogenously on the surface of human cell lines (B-LCL, MM1, U266, MCF-10A, MCF7, MDA-MB-231, T47D) (human) (UniProt Q10589); test: flow cytometry on MCF7 cells, mAb 1 ug/ml
[12] = target: BST2 as expressed endogenously on the surface of human cell lines (B-LCL, MM1, U266, MCF-10A, MCF7, MDA-MB-231, T47D) (human) (UniProt Q10589); test: flow cytometry on B-LCL cells, mAb 1 ug/ml
[13] = target: BST2 as expressed endogenously on the surface of human cell lines (B-LCL, MM1, U266, MCF-10A, MCF7, MDA-MB-231, T47D) (human) (UniProt Q10589); test: flow cytometry on U266 cells, mAb 1 ug/ml

percentage of cell staining [1]: 2.4%
binding result [2]: no binding (tested: 5 ug/ml)
percentage of cells stained [3]: 58.3%
Kd [4]: 4.61 nM
koff [4]: 0.000921 s⁻¹
kon [4]: 200000 M⁻¹ s⁻¹
staining percentage of the MM1 cells [5]: 5.01%
percentage of cell staining [6]: 98.6%
staining percentage of the MM1 cells [7]: 83.9%
percentage of cell staining [8]: 2.6%
percentage of cell staining [9]: 1%
staining percentage of the MM1 cells [10]: 85.2%
percentage of cell staining [11]: 0.43%
percentage of cell staining [12]: 99.3%
percentage of cell staining [13]: 96.1%
B1: anti-BST2-long monoclonal antibody clone LA5 (antibody, mouse IgG1, V domains shown)
VH: EVQLQQSGAELVRSGASVNLSCTASGFNIKDYYIHWVKQRPERGLEWIGWIDPENGDTEYAPEFQGKASMTADTSSNTAYLQLSSLTSEDTAVYYCKRGDWGQGTLVTVSA
VL: DVLMTQTPLSLPVSLGDQASISCRSSQSIVHSNGNTYLEWFLQKPGQSPKLLIYKVSNRFSGVPDRFSGSGSGTDFTLKISRVEAEDLGVYYCFQGSHAPFTFGSGTELEIK
notes: Mouse hybridoma antibody; Used as hybridoma supernatant in the screening assays and as Protein A purified mAb afterwards; also called LA5 mAb; MAb LA5
